Reference: patent publication US20130052733A1

Target: mAb LGIII 147.4.1
Assay: direct ELISA, capture by mAb LG III 147.4.1, detection with FL119

HLA-A*1101/LMP2340-349-fused β2m (from UniProt P61769 21-119) (peptide-MHC)
concentration at which absorbance is saturated: 4 nCM
